# From PMC10622425
# Biological target: M2 protein of human Influenza A virus A/WSN/33 (H1N1), wild type (Influenza A virus A/WSN/33 (H1N1))
# Experiment: co-IP
binder,measurement,value
human DHHC20 fused at its C-terminus to a myc-tag (enzyme) TLWRCCQRVVGWVPVLFITFVVVWSYYAYVVELCVFTIFGNEENGKTVVYLVAFHLFFVMFVWSYWMTIFTSPASPSKEFYLSNSEKERYEKEFSQERQQEILRRAARALPIYTTSASKTIRYCEKCQLIKPDRAHHCSACDSCILKMDHHCPWVNNCVGFSNYKFFLLFLLYSLLYCLFVAATVLEYFIKFWTNELTDTRAKFHVLFLFFVSAMFFISVLSLFSYHCWLVGKNRTTIESFRAPTFSYGPDGNGFSLGCSKNWRQVFGDEKKYWLLPIFSSLGDGCSFPTRLVGM,percent of total DHHC20-myc co-precipitated,1%
